From the DeepSol protein solubility set

Experiment: soluble on expression in E. coli; label from the status in PepcDB or PDB records

Row | Sequence | soluble on expression in E. coli
1 | MSLTISLGYRALDVGRARAHALIDQLSARESVELLCEAFEVPRSCYYNHRLRRRNPDVERVRLRSRVNELFTQSRSAAGSRSIVLMMHEDGEQIGRFKVRSLMRELGLISKQPGSHAYRKATVERPDIPNILNRAFDVPAPNQVWCGDITYIWAQGKWHYLAVVMDLFARRVVGWALSSKPDTDLVIKALDMAYEQRGKPQGLLFHSDQGAQYGSRQFRQRLWRYRIRQSMSRRGNCWDNAPMERVFRSLKTEWIPTVGYMTAQEAQRDISHYLMHRYNWIRPHQFNNGLAPAQSEKRLNVVSGISEGHHHHHH | not soluble
2 | MCECYQFYRMRITQSAQICLSVIKKSQKTGFGPNRLQRKGTHFVGTEPPVLKYHILQDKKPNEEYGLQGTNHELPGTGKVHSKLPTKVHMKKDKVYAWCSCGYSGSQPLCDGSHNSIRIPDLKLKPVRFIPDKDMTVWLCNCKQTNNRPFCDGSHKTVTDEDKKAGLFD | not soluble
3 | MSLQPVPDAGPWGDYLCDSPWALINSSIYAMKEIEPEPDFILWTGDDTPHVPDEKLGEAAVLEIVERLTKLIREVFPDTKVYAALGNHDFHPKNQFPAGSNNIYNQIAELWKPWLSNESIALFKKGAFYCEKLPGPSGAGRIVVLNTNLYYTSNALTADMADPGQQFQWLEDVLTDASKAGDMVYIVGHVPPGFFEKTQNKAWFREGFNEKYLKVVRKHHRVIAGQFFGHHHTDSFRMLYDDAGVPISAMFITPGVTPWKTTLPGVVNGANNPAIRVFEYDRATLSLKDMVTYFMNLSQANAQGTPRWELEYQLTEAYGVPDASAHSMHTVLDRIAGDQSTLQRYYVYNSVSEGHHHHHH | soluble
4 | MGSDKIHHHHHHMENTSYIALSRQTALWRQLDVVSNNLANMNTNGYQAEQTLFSEYLMNTRDSHFRLPEKLAYTQDAGTYRDLTAGPLEHTGNPLDLAINGEGYFEVEDGAGPAYTRGGRFTLDAEGKVVTADGRPLMTDAGTPLVIAPNEGEVTISATGTVSTENGPVGKLRLVSFEDEQKLRRIGGGLFDSGDQQANPITEPRIEQGMIEKSNVNPVVEMTRMIQVQRSYEAANKLIESENDRQLNAYAVLSGTK | not soluble
5 | MSLKQIPLAERMRPKTLADYVGQQHLIGSGAVLRQMIEQGQTPSMILWGPPGVGKTTLAEIIAHEVDAPFYTLSAVSSGVKEVREVIADIESNRGNLFDKGGRAILFIDEIHRFSKSQQDSLLAAVERGIVTLIGATTENPSFEVIRPLLSRCQVYVLKPQSDEDLLLLAHRAIDRDELLAAKHPVLEETEALLLYAGGDARKLLNILDLLATSEVEDRLVITNEKIRQRLQENPAAFDKGGELHYDIASAFIKSIRGSDPDAAIYWLARLIDGGEEPSFIARRLIISASEDIGLANPNAMLIAMACAEALDRIGWPEGRIPLAEATIYLATSEKSNSAYLAIDSALEYVRQSGNLPVPLHLRNAPTRLMADLDYGKGYKYSHDFPEHFVSQQYLPDKAANTSFWTPQMHTVHEAKLGERMKRWWKREKSQKDEGHHHHHH | soluble
6 | MAHHHHHHMSWLTPSGSSYFLSKVVVNSAPCAPLHLLVMHRCRVAFPCVNYRPLLWRGMLQVPSRPTICDNSLKVQLRHSRISSFKQEGYYRFARAKDIHVDESCFTLLTARGGGPGGQGSNSSSNKVEMRVNMASLSEYFDEELIGNIKANECGKALTSDETQLIISSHEHRSMYQNKEECIRRLQQMIHVASWVPPVEANPIKKPSHIVSERKNERRKKSAVKKMRQTARKGLW | not soluble
7 | MAHHHHHHMSTKYIIEHLDELEEWCIHEYIHICETVRDENVIFTKFCENFSELTNGKYKPACYEKSIDELKNELLSGNICLLDMKAKNKLTCNDKNKIDFLLFGGILGNVPSDDRTSILRNFNFPISRNLGPIQMTTNTAVLVCYIILNDNVELENIPYVDDPEIFLKNNKESITLPFRFVSKYYYTKCEQDKNVPVLPEKFKEYLIKLGDQQFDDMSSFLENEDN | not soluble
8 | MKPYLMGNNPCGADATLFAFAASLLSPVFETPIRAAAESHPNLIAYMARMRTRYYPDFQGSGVFAPALEHHHHHH | not soluble
9 | GSHMERPESELIRQSWRVVSRSPLEHGTVLFARLFALEPSLLPLFQYNGRQFSSPEDSLSSPEFLDHIRKVMLVIDAAVTNVEDLSSLEEYLTSLGRKHRAVGVRLSSFSTVGESLLYMLEKSLGPDFTPATRTAWSRLYGAVVQAMSRGWDGE | soluble
10 | MQPNDITFYQRFEADILAGHKTISIRDDSESHFKAGDILRVGRFEDNQYFCNIEVLSVSPITLDELTQPHAKQENMGLDELKEVIRGIYPNEIIFWVIQFSLKEYFNEEKCVREIIITDRKFN | soluble
11 | MSLFVEALKRQNPALISAALSLWQQGKIAPDSWVIDVDQILENGKRLIETARLYGIELYLMTKQFGRNPWLAEKLLALGYSGIVAVDYKEARVMRRAGLPVAHQGHLVQIPCHQVADAVEQGTDVITVFTLDKAREVSAAAVKAGRIQSVLLKVYSDDDFLYPGQESGFALKVLPEIVAEIQNLPGLHLAGLTHFPCLLWDEAVGKVLPTPNLHTLIQARDQLAKSGIALEQLNAPSATSCTSLPLLAQYGVTHAEPGHALTGTIPANQQGDQPERIAMLWLSEISHHFRGDSYCYGGGYYRRGHAQHALVFTPENQKITETNLKTVDDSSIDYTLPLAGEFPVSSAVVLCFRTQIFVTRSDVVLVSGIHRGEPEIVGRYDSLGNSLGAEGHHHHHH | soluble
12 | MAEGLRERKKRQTRQYISDVATGLFLERGFEAVTVAEVADAANVSVNTVYNYFPAKEDLFLDRSKGVIDRLSRWVRGRRDGESAAGAVLRELRDEVESVSPRVGLMDGYATFMKVIQDSPALRSRMWAIGQEVLLNLEHTLREETGSADDDMTPTLMAGQINWLHGTVLAAIGGRMVAGGKPSEVSRDMLLLLDEMEELLSEKVLNYAVRGAL | not soluble
13 | MELKSTRHTKYLCNYHFVWIPKHRRNTLVNEIAEYTKEVLKSIAEELGCEIIALEVMPDHIHLFVNCPPRYAPSYLANYFKGKSARLILKKFPQLNKGKLWTRSYFVATAGNVSSEVIKKYIEEQWRKEGEEE | soluble
14 | MFTGLHDILIILFLLVTLKIAQNVDHTKFLQKYGYLTSGDNQLSSESLSDALKNMQRMAGLEETGELDERTIQMMERPRCGHPDVEDHQKSRGKRYAPPQFKWKEKIITYGCKAVGTSTRISLDDLRRTMHQAASQWSELADVEIVESSVKNPMMVISAGRENHYPCTVRFDTKTLAHAFFPTNGQIHINDRVQFAMTNYTERMGANSLYSVVAHEMGHALGFSHSPDIDSVMFAYDTPRKWKFTSMDKYNMRSYYGAKASKKENEEEERKTENEDKRRKTEKDRGRTREHESDDIRPNECRVENPIVVQYRGEYLIFKSQWVWRVSSDWKRLIIKAVPINQLFPGLPNPIDAAVTVGHNLWVFVGEMIYVIYGNHMVHAPLRLSDIGINEKYVDLAYEWHYFNPPAVYIWKGSRYWKLDEKMYHRRVDERYPKDTDLNWARVPKGVHSAFTYEKEIHLLRGNQVFRMNSSRSVFDIADGYPQPLQSFFGFCPRNEKLVLNSSSSHFSLIYATITILILIF | not soluble
15 | MIDRPDTGEGTNYLIVGSDSRAGMSAEEKKKLHTGSAEGKRTDSMMILHTGDNGSTLVSLPRDSDVEIPTFKGSTSGKTYPGTGRHVKLNAAYAEDGPELLVRTIEYNTGLHIDHYVEIGFAGFANIVDSVGGVEMTLDKGFKDTFSGADFKAGKQTLNGEQALAFVRTRHAFAASDLERTKNQQKFLSALAHQVATPSTVLNPFKLYPTLSSGLDTLIVDKDMGLFDLADMFWAMKGVTGGDGTSMNMPISGSSGGNLVWDKAKVKALVNELKNDEKVTVSGNLEHHHHHH | soluble
16 | AHHHHHHGSIRRVKREIRVIGFDDGTFPHKKRGEKVILVGIVMKGGSDVLGAVSRWITIDGLDVTEAIIDSILSSRFRGDLRVILLKGITYAGFNVVDVNRVFRETGLPLIVVVRKRPDFEAIENALRKHFEDWEKRMELIKAGGKIYELIPGKVYYQAIGIDAETAAKIIRATSRNSLIPEALRIAHIVASAVMRGESSKE | not soluble
17 | MGKLYVFDHPLIQHKITYIRDKNTGTKDFRELVDEVASLMAFEITRDLPLKDIEIETPVSKATTKVIAGKKLGLIPILRAGLGMVDGILKLIPAAKVGHVGLYRDPKTLQPVEYYVKLPTDVEERDFIVLDPMLATGGSAAEAINSLKKRGAKQIKLMCIVAAPEGVKVVQEEHPDVDIYVAALDEKLNDHGYVVPGLGDAGDRLFGTK | not soluble
